# Results taken from article PMC9482650, “Quantitative fragmentomics allow affinity mapping of interactomes” (Nature Communications, 2022).
# Key:
# Assay in all cases: holdup assay
# Parameters in all cases: key: below the threshold = too weak to quantify, mostly under pKd 3.1 to 4
# APBA1_2, Q02410 = biological target: T1, APBA1_2, Q02410
# T1 sequence (Q02410 742-832, limits assumed, looked up): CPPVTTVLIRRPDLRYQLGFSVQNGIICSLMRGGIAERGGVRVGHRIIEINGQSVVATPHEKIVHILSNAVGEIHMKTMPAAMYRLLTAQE
# APBA2_1, Q99767 = biological target: T2, APBA2_1, Q99767
# T2 sequence (Q99767 563-664, limits assumed, looked up): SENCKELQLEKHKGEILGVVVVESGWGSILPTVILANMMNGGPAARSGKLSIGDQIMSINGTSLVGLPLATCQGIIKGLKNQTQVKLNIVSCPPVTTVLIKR
# CASK, O14936 = biological target: CASK, O14936
# DLG1_3, Q12959 = biological target: DLG1_3, Q12959
# DLG3_3, Q92796 = biological target: T3, DLG3_3, Q92796
# T3 sequence (Q92796 374-475, limits assumed, looked up): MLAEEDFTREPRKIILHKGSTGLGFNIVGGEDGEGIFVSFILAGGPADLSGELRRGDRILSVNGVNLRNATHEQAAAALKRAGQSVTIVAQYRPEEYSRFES
# DLG4_3, P78352 = biological target: DLG4_3, P78352
# DVL3, Q92997 = biological target: T4, DVL3, Q92997
# T4 sequence (Q92997 244-331, limits assumed, looked up): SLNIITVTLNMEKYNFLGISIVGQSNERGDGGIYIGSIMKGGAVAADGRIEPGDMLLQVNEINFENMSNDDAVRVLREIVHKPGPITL
# FRMPD1, Q5SYB0 = biological target: T5, FRMPD1, Q5SYB0
# T5 sequence (Q5SYB0 52-145, limits assumed, looked up): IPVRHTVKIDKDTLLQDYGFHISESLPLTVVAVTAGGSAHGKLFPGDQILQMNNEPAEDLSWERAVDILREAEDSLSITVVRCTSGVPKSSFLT
# FRMPD2_1, Q68DX3 = biological target: FRMPD2_1, Q68DX3
# FRMPD2_2, Q68DX3 = biological target: FRMPD2_2, Q68DX3
# FRMPD2_3, Q68DX3 = biological target: FRMPD2_3, Q68DX3
# GOPC, Q9HD26 = biological target: GOPC, Q9HD26
# GORASP1, Q9BQQ3 = biological target: GORASP1, Q9BQQ3
# GRIP1_7, Q9Y3R0 = biological target: T6, GRIP1_7, Q9Y3R0
# T6 sequence (Q9Y3R0 999-1096, limits assumed, looked up): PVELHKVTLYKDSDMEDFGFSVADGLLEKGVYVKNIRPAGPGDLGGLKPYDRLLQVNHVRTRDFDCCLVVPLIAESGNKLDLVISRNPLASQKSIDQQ
# Inadl_1, Q8NI35 = biological target: Inadl_1, Q8NI35
# Inadl_5, Q8NI35 = biological target: Inadl_5, Q8NI35
# LAP2, Q96RT1 = biological target: LAP2, Q96RT1
# LIN7C, Q9NUP9 = biological target: T7, LIN7C, Q9NUP9
# T7 sequence (Q9NUP9 88-185, limits assumed, looked up): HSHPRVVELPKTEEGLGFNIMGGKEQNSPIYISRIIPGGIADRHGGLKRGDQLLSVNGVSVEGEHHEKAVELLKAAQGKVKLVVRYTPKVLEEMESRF
# LNX1_3, Q8TBB1 = biological target: LNX1_3, Q8TBB1
# MAGI2_4, Q86UL8 = biological target: MAGI2_4, Q86UL8
# MAGI2_6, Q86UL8 = biological target: MAGI2_6, Q86UL8
# MPDZ_5, O75970 = biological target: T8, MPDZ_5, O75970
# T8 sequence (O75970 695-796, limits assumed, looked up): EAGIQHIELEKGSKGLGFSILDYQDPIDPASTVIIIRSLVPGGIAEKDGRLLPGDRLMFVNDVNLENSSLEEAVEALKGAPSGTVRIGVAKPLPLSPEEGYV
# NOS1, P29475 = biological target: NOS1, P29475
# PDZD7_3, Q9H5P4 = biological target: T9, PDZD7_3, Q9H5P4
# T9 sequence (Q9H5P4 857-944, limits assumed, looked up): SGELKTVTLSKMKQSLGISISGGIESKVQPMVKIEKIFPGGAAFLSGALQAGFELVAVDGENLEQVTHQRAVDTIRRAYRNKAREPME
# SCRIB_2, Q14160 = biological target: SCRIB_2, Q14160
# SHANK1, Q9Y566 = biological target: T10, SHANK1, Q9Y566
# T10 sequence (Q9Y566 658-767, limits assumed, looked up): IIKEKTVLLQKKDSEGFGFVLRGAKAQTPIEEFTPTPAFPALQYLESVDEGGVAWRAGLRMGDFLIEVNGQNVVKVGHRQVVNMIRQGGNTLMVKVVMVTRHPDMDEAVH
# SNTB1, Q13884 = biological target: T11, SNTB1, Q13884
# T11 sequence (Q13884 107-205, limits assumed, looked up): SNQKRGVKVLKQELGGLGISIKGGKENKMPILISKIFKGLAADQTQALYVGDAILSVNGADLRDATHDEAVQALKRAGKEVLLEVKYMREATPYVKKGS
# [1] = plain residues with an end cap or a label only (N-terminal biotin on a linker: ahx)
# [2] = plain residues with an end cap or a label only (N-terminal biotin on a linker: none)
# [3] = plain residues with an end cap or a label only (N-terminal biotin on a linker: gsgsgs; C-terminal amide)
# Sequence of Inadl_5, Q8NI35 (Q8NI35 673-780): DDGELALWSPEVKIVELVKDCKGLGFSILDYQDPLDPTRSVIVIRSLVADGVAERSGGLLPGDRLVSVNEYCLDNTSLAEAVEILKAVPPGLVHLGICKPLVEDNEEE
# Sequence of CASK, O14936 (O14936 487-570): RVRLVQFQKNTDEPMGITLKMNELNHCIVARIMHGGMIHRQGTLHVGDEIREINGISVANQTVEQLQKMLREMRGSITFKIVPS
# Sequence of FRMPD2_3, Q68DX3 (Q68DX3 1073-1166): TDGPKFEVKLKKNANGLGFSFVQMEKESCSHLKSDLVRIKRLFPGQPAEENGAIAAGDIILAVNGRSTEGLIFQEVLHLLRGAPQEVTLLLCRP
# Sequence of MAGI2_6, Q86UL8 (Q86UL8 1141-1229): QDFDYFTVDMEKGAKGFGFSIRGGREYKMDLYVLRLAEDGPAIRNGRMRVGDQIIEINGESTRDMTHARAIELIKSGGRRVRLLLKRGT
# Sequence of LNX1_3, Q8TBB1 (Q8TBB1 500-596): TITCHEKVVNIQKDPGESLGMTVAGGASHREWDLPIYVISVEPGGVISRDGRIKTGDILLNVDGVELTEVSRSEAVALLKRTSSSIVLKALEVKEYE
# Sequence of DLG4_3, P78352 (P78352 306-403): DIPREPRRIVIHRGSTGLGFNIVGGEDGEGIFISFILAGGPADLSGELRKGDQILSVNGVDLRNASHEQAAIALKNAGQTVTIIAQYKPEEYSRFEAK
# Sequence of NOS1, P29475 (P29475 9-101): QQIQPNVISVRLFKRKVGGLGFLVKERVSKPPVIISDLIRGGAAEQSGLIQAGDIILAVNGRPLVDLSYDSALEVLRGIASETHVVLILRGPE
# Sequence of LAP2, Q96RT1 (Q96RT1 other isoform, or with tags, fused parts or gaps): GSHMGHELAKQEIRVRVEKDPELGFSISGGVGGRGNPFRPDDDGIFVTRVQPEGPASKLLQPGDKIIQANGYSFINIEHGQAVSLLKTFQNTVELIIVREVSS
# Sequence of DLG1_3, Q12959 (Q12959 457-571): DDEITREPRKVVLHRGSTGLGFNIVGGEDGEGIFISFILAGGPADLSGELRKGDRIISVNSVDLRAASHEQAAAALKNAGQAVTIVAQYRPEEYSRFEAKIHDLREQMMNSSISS
# Sequence of SCRIB_2, Q14160 (Q14160 857-960): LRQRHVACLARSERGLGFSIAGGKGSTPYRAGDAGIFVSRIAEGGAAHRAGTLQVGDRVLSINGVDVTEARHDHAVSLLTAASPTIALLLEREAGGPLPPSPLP
# Sequence of FRMPD2_1, Q68DX3 (Q68DX3 770-861): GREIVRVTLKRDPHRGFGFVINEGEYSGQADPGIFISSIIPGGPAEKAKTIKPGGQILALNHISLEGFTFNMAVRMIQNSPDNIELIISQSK
# Sequence of Inadl_1, Q8NI35 (Q8NI35 113-229): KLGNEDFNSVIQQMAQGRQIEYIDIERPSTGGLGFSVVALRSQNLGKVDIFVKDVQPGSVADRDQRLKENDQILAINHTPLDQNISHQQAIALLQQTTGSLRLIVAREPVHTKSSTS
# Sequence of GORASP1, Q9BQQ3 (Q9BQQ3 1-208): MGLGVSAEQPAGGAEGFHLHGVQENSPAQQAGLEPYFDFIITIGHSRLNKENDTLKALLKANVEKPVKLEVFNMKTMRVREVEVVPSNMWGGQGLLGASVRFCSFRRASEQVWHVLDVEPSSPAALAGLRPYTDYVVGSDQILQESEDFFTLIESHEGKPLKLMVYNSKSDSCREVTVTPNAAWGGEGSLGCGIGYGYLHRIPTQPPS
# Sequence of MAGI2_4, Q86UL8 (Q86UL8 772-865): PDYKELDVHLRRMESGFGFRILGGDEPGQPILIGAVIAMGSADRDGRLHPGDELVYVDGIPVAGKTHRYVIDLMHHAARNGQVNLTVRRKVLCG
# Sequence of FRMPD2_2, Q68DX3 (Q68DX3 944-1038): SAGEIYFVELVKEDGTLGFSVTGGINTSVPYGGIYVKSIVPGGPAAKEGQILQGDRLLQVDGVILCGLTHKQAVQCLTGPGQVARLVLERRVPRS
binder,measurement,setting,value
"TVICWPGSLV [LNX2, Q8N448]",pKd,"APBA1_2, Q02410; [1]",4.39
same,pKd,"APBA2_1, Q99767; [1]",below the threshold
same,pKd,"CASK, O14936; [1]",below the threshold
same,pKd,"DLG1_3, Q12959; [1]",4.32
same,pKd,"DLG3_3, Q92796; [1]",3.95
same,pKd,"DLG4_3, P78352; [1]",3.58
same,pKd,"DVL3, Q92997; [1]",3.99
same,pKd,"FRMPD1, Q5SYB0; [1]",below the threshold
same,pKd,"FRMPD2_1, Q68DX3; [1]",4.13
same,pKd,"FRMPD2_2, Q68DX3; [1]",3.85
same,pKd,"FRMPD2_3, Q68DX3; [1]",below the threshold
same,pKd,"GOPC, Q9HD26; [1]",4.33
same,pKd,"GORASP1, Q9BQQ3; [1]",3.58
same,pKd,"GRIP1_7, Q9Y3R0; [1]",below the threshold
same,pKd,"Inadl_1, Q8NI35; [1]",below the threshold
same,pKd,"Inadl_5, Q8NI35; [1]",3.51
same,pKd,"LAP2, Q96RT1; [1]",3.86
same,pKd,"LIN7C, Q9NUP9; [1]",4.98
same,pKd,"LNX1_3, Q8TBB1; [1]",3.57
same,pKd,"MAGI2_4, Q86UL8; [1]",5.22
same,pKd,"MAGI2_6, Q86UL8; [1]",3.56
same,pKd,"MPDZ_5, O75970; [1]",4.03
same,pKd,"NOS1, P29475; [1]",3.82
same,pKd,"PDZD7_3, Q9H5P4; [1]",4.5
same,pKd,"SCRIB_2, Q14160; [1]",3.65
same,pKd,"SHANK1, Q9Y566; [1]",3.48
same,pKd,"SNTB1, Q13884; [1]",4.1
"NLNSSRVPDLLV [SARS-CoV2-E, P0DTC4]",pKd,"APBA1_2, Q02410; [2]",below the threshold
same,pKd,"APBA2_1, Q99767; [2]",below the threshold
same,pKd,"CASK, O14936; [2]",below the threshold
same,pKd,"DLG1_3, Q12959; [2]",below the threshold
same,pKd,"DLG3_3, Q92796; [2]",below the threshold
same,pKd,"DLG4_3, P78352; [2]",below the threshold
same,pKd,"DVL3, Q92997; [2]",below the threshold
same,pKd,"FRMPD1, Q5SYB0; [2]",below the threshold
same,pKd,"FRMPD2_1, Q68DX3; [2]",below the threshold
same,pKd,"FRMPD2_2, Q68DX3; [2]",below the threshold
same,pKd,"FRMPD2_3, Q68DX3; [2]",below the threshold
same,pKd,"GOPC, Q9HD26; [2]",below the threshold
same,pKd,"GORASP1, Q9BQQ3; [2]",3.6
same,pKd,"GRIP1_7, Q9Y3R0; [2]",below the threshold
same,pKd,"Inadl_1, Q8NI35; [2]",below the threshold
same,pKd,"Inadl_5, Q8NI35; [2]",below the threshold
same,pKd,"LAP2, Q96RT1; [2]",below the threshold
same,pKd,"LIN7C, Q9NUP9; [2]",below the threshold
same,pKd,"LNX1_3, Q8TBB1; [2]",below the threshold
same,pKd,"MAGI2_4, Q86UL8; [2]",3.65
same,pKd,"MAGI2_6, Q86UL8; [2]",below the threshold
same,pKd,"MPDZ_5, O75970; [2]",below the threshold
same,pKd,"NOS1, P29475; [2]",below the threshold
same,pKd,"PDZD7_3, Q9H5P4; [2]",below the threshold
same,pKd,"SCRIB_2, Q14160; [2]",below the threshold
same,pKd,"SHANK1, Q9Y566; [2]",below the threshold
same,pKd,"SNTB1, Q13884; [2]",below the threshold
"VSVDDVRSTSQGLSSY [DFNB31_int, Q9P202]",pKd,"APBA1_2, Q02410; [3]",below the threshold
same,pKd,"APBA2_1, Q99767; [3]",below the threshold
same,pKd,"CASK, O14936; [3]",below the threshold
same,pKd,"DLG1_3, Q12959; [3]",below the threshold
same,pKd,"DLG3_3, Q92796; [3]",below the threshold
same,pKd,"DLG4_3, P78352; [3]",below the threshold
same,pKd,"DVL3, Q92997; [3]",below the threshold
same,pKd,"FRMPD1, Q5SYB0; [3]",below the threshold
same,pKd,"FRMPD2_1, Q68DX3; [3]",below the threshold
same,pKd,"FRMPD2_2, Q68DX3; [3]",below the threshold
same,pKd,"FRMPD2_3, Q68DX3; [3]",below the threshold
same,pKd,"GOPC, Q9HD26; [3]",below the threshold
same,pKd,"GORASP1, Q9BQQ3; [3]",below the threshold
same,pKd,"GRIP1_7, Q9Y3R0; [3]",below the threshold
same,pKd,"Inadl_1, Q8NI35; [3]",below the threshold
same,pKd,"Inadl_5, Q8NI35; [3]",below the threshold
same,pKd,"LAP2, Q96RT1; [3]",3.7
same,pKd,"LIN7C, Q9NUP9; [3]",4.12
same,pKd,"LNX1_3, Q8TBB1; [3]",below the threshold
same,pKd,"MAGI2_4, Q86UL8; [3]",below the threshold
same,pKd,"MAGI2_6, Q86UL8; [3]",below the threshold
same,pKd,"MPDZ_5, O75970; [3]",below the threshold
same,pKd,"NOS1, P29475; [3]",below the threshold
same,pKd,"PDZD7_3, Q9H5P4; [3]",3.8
same,pKd,"SCRIB_2, Q14160; [3]",below the threshold
same,pKd,"SHANK1, Q9Y566; [3]",below the threshold
same,pKd,"SNTB1, Q13884; [3]",below the threshold
